From patent US8129349B2, “Treatment of disease by inducing cell apoptosis” (The Regents of the University of California, priority 2000, dated 2012)
Substitutions are numbered along the chain they refer to. No end group written: not given here.

T1: procaspase 1 (Homo sapiens, UniProt P29466)
T1 construct: purchased Alexis Biochemicals 201-056
T1 sequence (P29466 1-404): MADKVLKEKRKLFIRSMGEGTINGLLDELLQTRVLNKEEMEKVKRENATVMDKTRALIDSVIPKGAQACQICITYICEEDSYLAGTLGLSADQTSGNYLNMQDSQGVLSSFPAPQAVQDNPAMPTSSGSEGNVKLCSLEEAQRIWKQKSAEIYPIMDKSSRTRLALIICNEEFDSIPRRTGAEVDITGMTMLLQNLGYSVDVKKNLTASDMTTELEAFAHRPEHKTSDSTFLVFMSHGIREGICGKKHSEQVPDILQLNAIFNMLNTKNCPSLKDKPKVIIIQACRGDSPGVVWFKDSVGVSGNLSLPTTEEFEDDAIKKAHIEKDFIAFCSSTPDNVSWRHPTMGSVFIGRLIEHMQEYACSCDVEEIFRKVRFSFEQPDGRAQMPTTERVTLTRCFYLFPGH

B1: rC/EBPβ-Ala^105: modified rat C/EBPβ with mutation of Ser^105 to Ala (SEQ ID NO:14), nonphosphorylatable mutant (protein, listed as Rattus norvegicus)
chain: MHRLLAWDAACLPPPPAAFRPMEVANFYYEPDCLAYGAKAARAAPRAPAAEPAIGEHERAIDFSPYLEPLAPAAADFAAPAPAHHDFLSDLFADDYGAKPSKKPADYGYVSLGRAGAKAAPPACFPPPPPAALKAEPGFEPADCKRADDAPAMAAGFPFALRAYLGYQATPSGSSGSLSTSSSSSPPGTPSPADAKAAPAACFAGPPAAPAKAKAKKAVDKLSDEYKMRRERNNIAVRKSRDKAKMRNLETQHKVLELTAENERLQKKVEQLSRELSTLRNLFKQLPEPLLASAGHC
B2: rC/EBPβ-Asp^105: modified rat C/EBPβ with mutation of Ser^105 to aspartic acid (SEQ ID NO:15), phosphorylation mimic (protein, listed as Rattus norvegicus)
chain: B1 chain with A105D
B3: C/EBPβ-HA-Glu^217: purified recombinant HA (hemagglutinin) tagged C/EBPβ-Glu^217 peptide (protein)
chain: MHRLLAWDAACLPPPPAAFRPMEVANFYYEPDCLAYGAKAARAAPRAPAAEPAIGEHERAIDFSPYLEPLAPAADFAAPAPAHHDFLSDLFADDYGAKPSKKPADYGYVSLGRAGAKAAPPACFPPPPPAALKAEPGFEPADCKRADDAPAMAAGFPFALRAYLGYQATPSGSSGSLSTSSSSSPPGTPSPADAKAAPAACFAGPPAAPAKAKAKKEVDKLSDEYKMRRERNNIAVRKSRDKAKMRNLETQHKVLELTAENERLQKKVEQLSRELSTLRNLFKQLPEPLLASAGHC
modifications: left off: small tags and cut ends
notes: purified recombinant HA (hemagglutinin) tagged C/EBPβ-Glu^217 peptide

Assays:
procaspase 8 = procaspase 8 (Homo sapiens, UniProt Q14790); test: Co-immunoprecipitation of purified recombinant procaspase 8 with recombinant C/EBPβ peptides; type: binding; parameters: 21 amino acid linker (vector-derived) (N); purchased Alexis Biochemicals 201-041-C005; conditions: peptides 200 μM, procaspase 8 0.12 μg, quantitated by densitometry
Experimental: (§1) FIG. 5 provides results showing the direct association of C/EBPβ-Glu^217 with procaspases 1 and 8. […] Enzyme activity was measured in the absence (control) or presence of C/EBPβ peptides (200 μM) for 2 h, using a procaspases 1 (1U) (not shown) and 8 (0.2 μg) activity assay. Values are presented as the mean±one half the range of duplicates. Panel C provides results for cells cultured on a collagen type I matrix and incubated with the indicated cell permeant, purified synthetic N-acetyl, C-aldehyde C/EBPβ tetra-peptides (10 μM) or with recombinant C/EBPβ-HA peptides as indicated, together with the Chariot reagent (Active Motif) for 4 h. Control cells were incubated without peptides (P<0.05 for all peptides containing Ala^217).
Purified recombinant C/EBPβ peptides, expressed as known in the art (See, Descombes et al., supra; and Buck et al. (1994), supra), and purified synthetic N-acetyl, C-aldehyde tetrapeptides (200 μM) (American Peptide Company) were assayed for their ability to inhibit the activity of purified human recombinant caspases 1 (catalogue # 201-056) and 8 (catalogue # 201-041-C005) (Alexis Biochemicals). The sequence of caspase 8 includes Ser217 through Asp479 cloned into an expression vector containing a 21 amino acid linker at the N-terminus. Thus, the prodomain (first 220 amino acids) is essentially missing. […] Caspase activity was determined by the release of the p-nitroaniline colorimetric (Alexis Biochemicals) substrate for caspase 1 (catalogue # 260-026) or 8 (catalogue # 260-045) within the linear part of the kinetic assay (Thornberry et al. (1997), supra; Stennicke and Salvesen, supra). […]
(§2) To delineate the role of C/EBPβ on the activation of procaspases 1 and 8, the self-activation of recombinant procaspases 1 and 8 was induced in vitro (Wilson et al., supra; Margolin et al., supra; and Earnshaw et al., supra), and the effect of purified recombinant C/EBPβ peptides, produced as described previously (Descombes et al., supra; and Buck et al., (1994), supra) on this process was determined. […]

procaspase 1 = target: T1, procaspase 1; test: Co-immunoprecipitation of purified recombinant procaspase 1 with recombinant C/EBPβ peptides; type: binding; conditions: peptides 200 μM, procaspase 1 0.6 U, quantitated by densitometry
Experimental: as §1
Purified recombinant C/EBPβ peptides, expressed as known in the art (See, Descombes et al., supra; and Buck et al. (1994), supra), and purified synthetic N-acetyl, C-aldehyde tetrapeptides (200 μM) (American Peptide Company) were assayed for their ability to inhibit the activity of purified human recombinant caspases 1 (catalogue # 201-056) and 8 (catalogue # 201-041-C005) (Alexis Biochemicals). The sequence of caspase 8 includes Ser217 through Asp479 cloned into an expression vector containing a 21 amino acid linker at the N-terminus. Thus, the prodomain (first 220 amino acids) is essentially missing. The fragment is cleaved at Asp385 and the active caspases are essentially identical to those identified in apoptotic cells (Stennicke and Salvesen, Meth. Enzymol., 322:91-100 (1997)). Caspase activity was determined by the release of the p-nitroaniline colorimetric (Alexis Biochemicals) substrate for caspase 1 (catalogue # 260-026) or 8 (catalogue # 260-045) within the linear part of the kinetic assay (Thornberry et al. (1997), supra; Stennicke and Salvesen, supra). Caspase 1 and 8 activity in cells was performed with colorimetric kits (catalogues # 850-211-K and 850-221-K) as described by the manufacturer (Alexis) (See also, Thornberry et al. (1997), supra). The caspase 8 inhibitor IETD was from Calbiochem (Catalogue # 218773).
as §2, with “determined. Consistent with the in vivo results described above, C/EBPβ-HA-Glu^217 and C/EBPβ 216-253-HA-Glu^217, but not C/EBPβ-HA-Ala^217, peptides associated with procaspases 1 and 8 (See, FIG. 5, Panel A).” for “determined.”

hepatic stellate cells = test: Apoptosis of activated stellate cells transfected with C/EBPβ constructs, annexin-V-PE binding; type: cell-based, mouse; conditions: for Rescue from induced apoptosis by expressed construct: apoptosis induced by dominant negative MEKK1, IκBα or RSK mutants or by lactacystin; for Effect of expressed construct on apoptosis / survival of stellate cells: transfected cells on collagen type I matrix
Description: FIG. 1 provides data showing that phosphorylation of C/EBPβ on Thr^217 is required for hepatic stellate cell survival. Panel A provides phosphopeptide maps of in vivo labeled endogenous C/EBPβ in day-4 quiescent and activated primary mouse stellate cells cultured from the time of isolation on EHS or collagen type I matrix, respectively. The arrow indicates the peptide containing Phospho-Thr^217 in activated cells. […] Panel B provides phosphopeptide maps of in vitro labeled C/EPBβ. Active p90RSK phosphorylated C/EPBβ, but not C/EBPβ-Ala^217 on Thr^217 in vitro (arrowheads). Panel C provides results for cells cultured on collagen type I transfected with MSV-C/EBPβ antisense (AS), MSV-C/EBPβ sense (S), or MSV-C/EBPβ-Ala^217 together with CMV-GFP (green fluorescent protein) and p90RSK (1 μg each), as indicated in the Figure. Four hours after transfection, annexin-V-PE binding to plasma membranes was determined. The values presented are the percentage of transfected cells (green) that were annexin-V-PE (+) (red) (P<0.05 for C/EBPβ AS, and C/EBPβ-Ala^217). Panel D provides results for cells transfected as in […] with vectors expressing dominant negative mutants for MEKK1, IκBα, or p90RSK, or treated with the proteasome inhibitor lactacystin (10 μM) (closed bars), and co-transfected with MSV-C/EBPβ-Glu^217 (1 μg each) (open bars) as indicated. Annexin-V-PE binding was determined as described for Panel A (P<0.05 for C/EBPβ-Glu^217). Panel E provides results for cells transfected as described for Panel C, with a dominant-negative p90RSK, treated with FAS (100 nM for 6 hours) or cultured in a serum-free medium for 6 hours (closed bars), and co-transfected with MSV-C/EBPβ-Glu^217 (1 μg each) (open bars), as indicated. Cell death was determined by nuclear staining with Hoechst 33342 (P<0.05 for C/EBPβ-Glu^217 in RSK mut and FAS-treated cells).
FIG. 4 provides results showing that C/EBPβ PThr^217 associates with procaspases 1 and 8, and inhibits their activation. Panel A provides schematic representations of C/EBPβ peptides. The activation (dotted bars), DNA binding (solid bars) and dimerization (hatched bars) domains are shown. […] Panel C provides results showing that C/EBPβ and procaspase 8 were detected in activated stellate cells isolated from C/EBPβ^+/+ mice by confocal microscopy using specific antibodies (Santa Cruz Biotechnology). Control C/EBPβ^−/− stellate cells were negative for C/EBPβ, positive for procaspase 8, and apoptotic. Panel D provides immunoblot results for MSV vectors expressing C/EBPβ-HA (hemagglutinin protein) peptides (0.3 μg) transfected into activated stellate cells. The expressed peptides were immunoprecipitated with anti-HA antibodies. C/EBPβ-PThr^217 was detected using a specific antibody, only in cells expressing wild-type C/EBPβ. […] RSK was associated with all C/EBPβ peptides. Neither C/EBPβ nor procaspases 1 and 8 were detected in C/EBPβ immunoprecipitates from cells expressing C/EBPβ AS. Reciprocal immunoprecipitations of procaspases and RSK confirmed these associations.
Adult male Sprague-Dawley rats and adult male C/EBPβ^+/+ and C/EBPβ^−/− (Screpanti et al., supra; and Buck et al., (1999), supra), C/EBPβ-Ala^217 and C/EBPβ-Asp^105 transgenic mice were used for the isolation of primary hepatic stellate cells (Houglum et al., supra). Primary hepatic stellate cells were isolated by collagenase/pronase perfusion and purified by a single step density Nycodenz gradient (Accurate Chemical & Scientific) as known in the art (See, Lee et al., (1995), supra). Cells were plated on type I collagen matrix (Becton Dickinson) or EHS matrix (Matrigel, Collaborative Biomedical Products). Cells were cultured with 10% fetal calf serum/10% fetal bovine serum and transfected with lipofectamine (GIBCO) for DNA vectors or with the Chariot reagent (Active Motif) for peptides (10 μM) as known in the art (See, Houglum et al., supra; and Morris et al., J. Biol. Chem., 274:24942-24946 (1999)). […]

Chain of procaspase 8 (Q14790 217-479): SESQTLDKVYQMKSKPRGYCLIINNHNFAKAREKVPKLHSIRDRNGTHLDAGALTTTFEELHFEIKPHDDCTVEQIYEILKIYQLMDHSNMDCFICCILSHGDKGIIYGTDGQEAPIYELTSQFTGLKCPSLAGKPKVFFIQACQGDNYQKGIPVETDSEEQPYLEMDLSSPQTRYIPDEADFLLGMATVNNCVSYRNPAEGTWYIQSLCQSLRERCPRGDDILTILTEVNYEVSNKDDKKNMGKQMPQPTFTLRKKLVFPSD

Molecule	Co-immunoprecipitation of procaspase 8, fold more than the Ala^217 peptides (procaspase 8) [fold]	Co-immunoprecipitation of procaspase 1, fold more than the Ala^217 peptides (procaspase 1)	Rescue from induced apoptosis by expressed construct (hepatic stellate cells)	Effect of expressed construct on apoptosis / survival of stellate cells (hepatic stellate cells)
C/EBPβ216-253-HA-Glu^217: purified recombinant HA tagged C/EBPβ 216-253 peptide with Glu^217 (KEVDKLSDEYKMRRERNNIAVRKSRDKAKMRNLETQHK; also: HA tag (place not given here))	~12	about 7 fold		
C/EBPβ 216-253-Glu^217: C/EBPβ fragment 216-253 with Glu^217, lacking the activation and dimerization domains (KEVDKLSDEYKMRRERNNIAVRKSRDKAKMRNLETQHK; left off: small tags and cut ends)	12	7 fold	sufficient to rescue cells from apoptosis	
C/EBPβ 216-253-Ala^217: C/EBPβ fragment 216-253 with Ala^217, lacking the activation and dimerization domains (KAVDKLSDEYKMRRERNNIAVRKSRDKAKMRNLETQHK; left off: small tags and cut ends)				induced apoptosis
B1				induced apoptosis
B2			rescued	
B3		about 7 fold		
